Measurements: patent US5710244A, “Derivatized calcitonins” (priority 1993, dated 1998)
Numbered stars: 1 amine (or outer) side, 2 acyl side, 3 side chain; on linkers, the order of the positions; unused ones are H or OH. Bridge positions count the residues as written; N and C are the ends. * marks the point of attachment. X1 = 2,2'‑bipyridine‑4,4'‑dicarboxylic acid, O=C(O)c1ccnc(-c2cc(C(=O)*)ccn2)c1; X2 = 2,2'‑bipyridine‑5,5'‑dicarboxylic acid, O=C(O)c1ccc(-c2ccc(C(=O)*)cn2)nc1; Biphenyldicarbonyl(4,4') = O=C(c1ccc(-c2ccc(C(=O)[*:2])cc2)cc1)[*:1]; Pyrazinecarbonyl = O=C(c1cnccn1)*; Nicotinoyl = O=C(c1cccnc1)*

Legend:
[1] = test system: endogenous hamster calcitonin receptor; test: CRE-linked luciferase (cyclic AMP) induction in BHK cells expressing endogenous hamster calcitonin receptor; format: cell-based; settings: for % SCT EC50, Hamster CT receptor: EC50 as % of salmon calcitonin (SCT) EC50, CRE-luciferase, BHK cells, 4 h induction
Experimental: A BHK cell line expressing the endogenous hamster calcitonin receptor was transfected with plasmid KZ10-20-48 to provide the CRE-inducible luciferase receptor described above. The transfected cells were cultured in selective growth medium containing both 500 μg/mL G418-neomycin and 250 nM methotrexate.
Cells expressing the calcitonin receptor were assayed in triplicate for the induction of the CRE-linked luciferase response to salmon calcitonin (SCT) and derivatized calcitonins at concentrations ranging from 10^-13 M to 10^-6 M. MICROLITE flat bottom tissue culture plates (Baxter Scientific Products, Chicago, Ill.) were set up such that each well contained 2×10^4 cells in 100 μl of selection media, and the cells were grown overnight. SCT and GF43 were prepared at 2X the final assay concentration to give 10^-13 to 10^-6 M in growth medium. Induction was initiated by removing old medium from the wells and adding 100 μl of fresh growth medium and 100 μl of either 2X solution in triplicate sample wells. Uninduced luciferase levels were determined in triplicate wells to which 100 μl of DMEM containing 10% fetal calf serum was added. The plates were incubated for four hours at 37° C., 5% CO2 to allow induction of luciferase. Following induction, the media were removed, and the wells were washed once with 200 μl/well PBS. After the wash, 20 μl of a 1:5 dilution (in sterile water) of the stock Cell Culture Lysis Reagent (Luciferase Assay System, Promega Corp., Madison, Wis.) was added to each well, and the plates were incubated for 15 minutes at room temperature. The plates were transferred to a Labsystems Luminoskan microtiter luminometer (Labsystems Inc., Morton Grove, Ill.) which added 40 μl of Luciferase Assay Substrate (Luciferase Assay System, Promega), mixed the reaction for three seconds and integrated the luciferase signal for two seconds per well. The fold induction of luciferase for each compound was calculated as follows:
Fold induction=Induced signal-Uninduced signal Uninduced signal

[2] = target: endogenous hamster calcitonin receptor (hamster)
[3] = target: T1, recombinant human calcitonin receptor (human, UniProt P30988); test: cell-based or functional assay
T1 sequence: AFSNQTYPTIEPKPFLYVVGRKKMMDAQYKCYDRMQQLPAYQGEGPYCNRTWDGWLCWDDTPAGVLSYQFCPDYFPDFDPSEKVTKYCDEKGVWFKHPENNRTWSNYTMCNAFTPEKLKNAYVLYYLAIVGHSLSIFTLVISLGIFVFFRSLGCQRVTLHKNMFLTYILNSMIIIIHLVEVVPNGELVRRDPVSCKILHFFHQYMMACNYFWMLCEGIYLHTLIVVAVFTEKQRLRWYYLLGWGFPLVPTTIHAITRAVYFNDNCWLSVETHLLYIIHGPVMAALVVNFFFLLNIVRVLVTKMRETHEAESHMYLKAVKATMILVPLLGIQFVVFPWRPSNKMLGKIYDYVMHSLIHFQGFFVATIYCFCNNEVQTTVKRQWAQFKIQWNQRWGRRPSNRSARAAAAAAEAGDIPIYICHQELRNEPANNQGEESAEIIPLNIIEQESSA

Molecule	% SCT EC50, Hamster CT receptor [1] [%]	% SCT EC50, Hamster CT receptor (× 10^3) ([1]; EC50 as % of SCT EC50, the factor × 10^3 is printed under the HCT value only)	% SCT EC50 (CRE-linked luciferase induction) [2] [% SCT EC50]	% SCT EC50 (CRE-linked luciferase induction) [3] [% SCT EC50]
ZP-2: 2,2'-bipyridine-5,5'-dicarboxylic acid modified salmon calcitonin	125	–	–	–
ZP-3: 4-4'-biphenyldicarboxylic acid modified salmon calcitonin	341	–	–	–
ZP-10: nipecotic acid modified salmon calcitonin	152	–	–	–
ZP-7: 2-Pyrazinoyl-modified salmon calcitonin	155	–	–	–
human calcitonin [HCT, reference compound]	–	5.9 × 10^3%	–	–
human calcitonin (from UniProt P01258) (peptide)	–	–	5900	–
Nicotinoyl-CSNLSTCVLGKLSQELHKLQTYPRTNTGSGTP-NH2 (disulfide 1-7; SMILES CC(C)C[C@H](NC(=O)[C@H](CCCCN)NC(=O)CNC(=O)[C@H](CC(C)C)NC(=O)[C@@H](NC(=O)[C@@H]1CSSC[C@H](NC(=O)c2cccnc2)C(=O)N[C@@H](CO)C(=O)N[C@@H](CC(N)=O)C(=O)N[C@@H](CC(C)C)C(=O)N[C@@H](CO)C(=O)N[C@@H]([C@@H](C)O)C(=O)N1)C(C)C)C(=O)N[C@@H](CO)C(=O)N[C@@H](CCC(N)=O)C(=O)N[C@@H](CCC(=O)O)C(=O)N[C@@H](CC(C)C)C(=O)N[C@@H](Cc1c[nH]cn1)C(=O)N[C@@H](CCCCN)C(=O)N[C@@H](CC(C)C)C(=O)N[C@@H](CCC(N)=O)C(=O)N[C@H](C(=O)N[C@@H](Cc1ccc(O)cc1)C(=O)N1CCC[C@H]1C(=O)N[C@@H](CCCNC(=N)N)C(=O)N[C@H](C(=O)N[C@@H](CC(N)=O)C(=O)N[C@H](C(=O)NCC(=O)N[C@@H](CO)C(=O)NCC(=O)N[C@H](C(=O)N1CCC[C@H]1C(N)=O)[C@@H](C)O)[C@@H](C)O)[C@@H](C)O)[C@@H](C)O) [Nicotinic acid-modified Calcitonin]	–	–	71	112
{Biphenyldicarbonyl(4,4')}-CSNLSTCVLGKLSQELHKLQTYPRTNTGSGTP-NH2 (disulfide 1-7; SMILES CC(C)C[C@H](NC(=O)[C@H](CCCCN)NC(=O)CNC(=O)[C@H](CC(C)C)NC(=O)[C@@H](NC(=O)[C@@H]1CSSC[C@H](NC(=O)c2ccc(-c3ccc(C(=O)O)cc3)cc2)C(=O)N[C@@H](CO)C(=O)N[C@@H](CC(N)=O)C(=O)N[C@@H](CC(C)C)C(=O)N[C@@H](CO)C(=O)N[C@@H]([C@@H](C)O)C(=O)N1)C(C)C)C(=O)N[C@@H](CO)C(=O)N[C@@H](CCC(N)=O)C(=O)N[C@@H](CCC(=O)O)C(=O)N[C@@H](CC(C)C)C(=O)N[C@@H](Cc1c[nH]cn1)C(=O)N[C@@H](CCCCN)C(=O)N[C@@H](CC(C)C)C(=O)N[C@@H](CCC(N)=O)C(=O)N[C@H](C(=O)N[C@@H](Cc1ccc(O)cc1)C(=O)N1CCC[C@H]1C(=O)N[C@@H](CCCNC(=N)N)C(=O)N[C@H](C(=O)N[C@@H](CC(N)=O)C(=O)N[C@H](C(=O)NCC(=O)N[C@@H](CO)C(=O)NCC(=O)N[C@H](C(=O)N1CCC[C@H]1C(N)=O)[C@@H](C)O)[C@@H](C)O)[C@@H](C)O)[C@@H](C)O) [4-4'-biphenyldicarboxylic acid modified salmon calcitonin]	–	–	341	450
CSNLSTCVLGKLSQELHKLQTYPRTNTGSGTP (N-terminal amino group acylated with isonipecotic acid (amide linkage); C-terminal amide; disulfide Cys1-Cys7) [isonipecotic acid modified salmon calcitonin]	–	–	106	146
CSNLSTCVLGKLSQELHKLQTYPRTNTGSGTP (N-terminal amino group acylated with DL-pipecolinic acid (amide linkage); C-terminal amide; disulfide Cys1-Cys7) [DL-pipecolinic acid modified salmon calcitonin]	–	–	147	230
{picolinic acid}-CSNLSTCVLGKLSQELHKLQTYPRTNTGSGTP-NH2 (disulfide 1-7) [Pycolinyl-modified Calcitonin]	–	–	98	140
{nipecotic acid}-CSNLSTCVLGKLSQELHKLQTYPRTNTGSGTP-NH2 (disulfide 1-7) [nipecotic acid modified salmon calcitonin]	–	–	152	243
X2-CSNLSTCVLGKLSQELHKLQTYPRTNTGSGTP-NH2 (disulfide 1-7; SMILES CC(C)C[C@H](NC(=O)[C@H](CCCCN)NC(=O)CNC(=O)[C@H](CC(C)C)NC(=O)[C@@H](NC(=O)[C@@H]1CSSC[C@H](NC(=O)c2ccc(-c3ccc(C(=O)O)cn3)nc2)C(=O)N[C@@H](CO)C(=O)N[C@@H](CC(N)=O)C(=O)N[C@@H](CC(C)C)C(=O)N[C@@H](CO)C(=O)N[C@@H]([C@@H](C)O)C(=O)N1)C(C)C)C(=O)N[C@@H](CO)C(=O)N[C@@H](CCC(N)=O)C(=O)N[C@@H](CCC(=O)O)C(=O)N[C@@H](CC(C)C)C(=O)N[C@@H](Cc1c[nH]cn1)C(=O)N[C@@H](CCCCN)C(=O)N[C@@H](CC(C)C)C(=O)N[C@@H](CCC(N)=O)C(=O)N[C@H](C(=O)N[C@@H](Cc1ccc(O)cc1)C(=O)N1CCC[C@H]1C(=O)N[C@@H](CCCNC(=N)N)C(=O)N[C@H](C(=O)N[C@@H](CC(N)=O)C(=O)N[C@H](C(=O)NCC(=O)N[C@@H](CO)C(=O)NCC(=O)N[C@H](C(=O)N1CCC[C@H]1C(N)=O)[C@@H](C)O)[C@@H](C)O)[C@@H](C)O)[C@@H](C)O) [2,2'-bipyridine-5,5'-dicarboxylic acid modified salmon calcitonin]	–	–	125	199
Pyrazinecarbonyl-CSNLSTCVLGKLSQELHKLQTYPRTNTGSGTP-NH2 (disulfide 1-7; SMILES CC(C)C[C@H](NC(=O)[C@H](CCCCN)NC(=O)CNC(=O)[C@H](CC(C)C)NC(=O)[C@@H](NC(=O)[C@@H]1CSSC[C@H](NC(=O)c2cnccn2)C(=O)N[C@@H](CO)C(=O)N[C@@H](CC(N)=O)C(=O)N[C@@H](CC(C)C)C(=O)N[C@@H](CO)C(=O)N[C@@H]([C@@H](C)O)C(=O)N1)C(C)C)C(=O)N[C@@H](CO)C(=O)N[C@@H](CCC(N)=O)C(=O)N[C@@H](CCC(=O)O)C(=O)N[C@@H](CC(C)C)C(=O)N[C@@H](Cc1c[nH]cn1)C(=O)N[C@@H](CCCCN)C(=O)N[C@@H](CC(C)C)C(=O)N[C@@H](CCC(N)=O)C(=O)N[C@H](C(=O)N[C@@H](Cc1ccc(O)cc1)C(=O)N1CCC[C@H]1C(=O)N[C@@H](CCCNC(=N)N)C(=O)N[C@H](C(=O)N[C@@H](CC(N)=O)C(=O)N[C@H](C(=O)NCC(=O)N[C@@H](CO)C(=O)NCC(=O)N[C@H](C(=O)N1CCC[C@H]1C(N)=O)[C@@H](C)O)[C@@H](C)O)[C@@H](C)O)[C@@H](C)O) [2-Pyrazinoyl-modified calcitonin]	–	–	155	158
X1-CSNLSTCVLGKLSQELHKLQTYPRTNTGSGTP-NH2 (disulfide 1-7; SMILES CC(C)C[C@H](NC(=O)[C@H](CCCCN)NC(=O)CNC(=O)[C@H](CC(C)C)NC(=O)[C@@H](NC(=O)[C@@H]1CSSC[C@H](NC(=O)c2ccnc(-c3cc(C(=O)O)ccn3)c2)C(=O)N[C@@H](CO)C(=O)N[C@@H](CC(N)=O)C(=O)N[C@@H](CC(C)C)C(=O)N[C@@H](CO)C(=O)N[C@@H]([C@@H](C)O)C(=O)N1)C(C)C)C(=O)N[C@@H](CO)C(=O)N[C@@H](CCC(N)=O)C(=O)N[C@@H](CCC(=O)O)C(=O)N[C@@H](CC(C)C)C(=O)N[C@@H](Cc1c[nH]cn1)C(=O)N[C@@H](CCCCN)C(=O)N[C@@H](CC(C)C)C(=O)N[C@@H](CCC(N)=O)C(=O)N[C@H](C(=O)N[C@@H](Cc1ccc(O)cc1)C(=O)N1CCC[C@H]1C(=O)N[C@@H](CCCNC(=N)N)C(=O)N[C@H](C(=O)N[C@@H](CC(N)=O)C(=O)N[C@H](C(=O)NCC(=O)N[C@@H](CO)C(=O)NCC(=O)N[C@H](C(=O)N1CCC[C@H]1C(N)=O)[C@@H](C)O)[C@@H](C)O)[C@@H](C)O)[C@@H](C)O) [Bipyridine-modified Calcitonin]	–	–	73	97
